Changes are numbered by the printed parent chain. One block for each binder: values may come before it.
Experiments:
[1] = target: T1, 5T4 (SPR antigen) (UniProt Q13641 32-355, limits assumed, biotinylated on the MASS-1 platform); experiment: SPR Biacore 3000, amine-coupled 5T4, mAb injected (bivalent)
T1 construct: also called biotinylated 5T4
T1 sequence (looked up): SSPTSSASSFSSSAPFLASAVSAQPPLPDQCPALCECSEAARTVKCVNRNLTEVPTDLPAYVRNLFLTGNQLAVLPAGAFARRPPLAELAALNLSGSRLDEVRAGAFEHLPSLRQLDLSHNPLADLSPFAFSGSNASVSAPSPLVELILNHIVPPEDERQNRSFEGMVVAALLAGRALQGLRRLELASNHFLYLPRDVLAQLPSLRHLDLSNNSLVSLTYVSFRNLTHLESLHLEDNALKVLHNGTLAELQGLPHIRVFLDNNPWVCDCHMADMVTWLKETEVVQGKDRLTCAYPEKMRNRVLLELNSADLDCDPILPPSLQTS
Experimental: Binding kinetics of the 5T4-specific mAbs have been studied using two different SPR-based platforms, the Biacore 3000 (GE Healthcare) and the MASS-1 platform (Sierra Sensors). Briefly, 5T4 was captured at the sensor chip surface either via direct amine coupling (Biacore platform) or using a streptavidin coated chip and biotinylated 5T4 (MASS-1 platform). The different 5T4-specific mAbs were then injected over the chip in increasing concentrations and the association and dissociation rates studied in real time. A 1:1 Langmuir model was used for curve fitting.

[2] = target: T2, human 5T4 on transfected cells (human, UniProt Q13641 32-420); experiment: flow cytometry, 5T4-transfected B16 cells
T2 construct: whole, on cells; also called B16-5T4; CHOh5T4
T2 sequence (looked up): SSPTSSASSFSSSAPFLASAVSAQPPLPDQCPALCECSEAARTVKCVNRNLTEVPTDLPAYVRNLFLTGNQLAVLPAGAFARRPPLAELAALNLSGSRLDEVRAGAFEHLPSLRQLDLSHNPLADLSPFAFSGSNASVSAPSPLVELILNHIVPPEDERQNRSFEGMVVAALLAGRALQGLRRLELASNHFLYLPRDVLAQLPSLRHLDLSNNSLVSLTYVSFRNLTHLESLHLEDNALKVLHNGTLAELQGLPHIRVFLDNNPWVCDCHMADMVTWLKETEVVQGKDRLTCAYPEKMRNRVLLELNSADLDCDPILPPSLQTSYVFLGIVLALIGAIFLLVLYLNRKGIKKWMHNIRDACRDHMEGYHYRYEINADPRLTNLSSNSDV

[3] = target: T1, 5T4 (SPR antigen); experiment: SPR MASS-1, biotinylated antigen on streptavidin chip, parental mAb
[4] = target: T3, human/mouse 5T4 chimera E6; experiment: flow cytometry, cells with human/mouse 5T4 chimera
T3 construct: on transfected CHO cells
Experimental: (§1) Epitope mapping was performed by investigation of loss of binding by the antibodies using a panel of human/mouse chimeric 5T4 constructs by flow cytometry. […] Two strategies were used for the epitope mapping as illustrated in FIG. 5. In one approach, seven human/mouse 5T4 chimeras were constructed based on dividing 5T4 into seven different domains (FIG. 5). By replacing each domain with the corresponding mouse sequence seven human/mouse 7 5T4 human/mouse chimeras were generated. The chimeras were generated using the human protein 5T4 sequence NP_006661.1 (reference mRNA sequence NM_006670.4) and the corresponding mouse sequence NP_035757.2 (reference mRNA sequence NM_011627.4). The human/mouse chimeric DNA constructs, as well as human and mouse wild-type 5T4, were cloned into pcDNA3.1 expression vectors. […] As controls human 5T4 and mouse 5T4-transfected cells were used. For flow cytometric analysis, cells were stained with different 5T4 antibodies diluted in FACS buffer (PBS, 0.5% BSA). […] Samples were analysed by FACSverse (BD Biosciences, Heidelberg, Germany) and % positive cells were determined. To compensate for variations in % 5T4 positive cells in the various transfected populations, binding levels were normalized within each chimera by dividing % positive cells for each clone with % positive cells for the clones resulting in the highest % positive cells (% pos cellscloneX/% positive cellsₘₐₓ). A normalized value ≤0.75 was defined as mAb binding being dependent on the replaced region, whereas a normalized value ≤0.25 was defined as complete dependence.

[5] = target: T4, human/mouse 5T4 chimera E3; experiment: flow cytometry, cells with human/mouse 5T4 chimera
T4 construct: on transfected CHO cells
Experimental: as §1

[6] = target: T5, human/mouse 5T4 chimera E2; experiment: flow cytometry, cells with human/mouse 5T4 chimera
T5 construct: on transfected CHO cells
Experimental: as §1

[7] = target: T2, human 5T4 on transfected cells; experiment: flow cytometry, human 5T4-transfected CHO cells
Experimental: Analysis of 5T4 mAb binding with flow cytometry was performed using 5T4-transfected cell lines and as negative control, mock transfected cells. Three different transfected cell lines used were used for this study; B16, A9 and CHO, transfected either with a 5T4 construct or with an empty vector control construct. Cells were stained with 5T4 antibodies diluted in FACS buffer (PBS, 0.5% BSA and 0.02% NaN₃). […] Samples were analysed either on a FACSCalibur or a FACSverse (BD Biosciences, Heidelberg, Germany) and mean fluorescence intensity (MFI) determined.
In a new attempt to calculate EC50 with flow cytometry a 5T4 mAb dose response experiment was performed using CHO cells stably transfected with human 5T4.

- Kd [1]: 0.2 nM
- koff [1]: 0.0001 s⁻¹
- kon [1]: 500000 M⁻¹ s⁻¹
- EC50 [2]: 0.8 nM
- Kd [3]: 0.437 nM
- normalized % positive cells [4]: 0.89
- normalized % positive cells [5]: 0.9
- normalized % positive cells [6]: 0.02
- EC50 [7]: 0.81 nM
B1: 1210/1211 (antibody, V domains shown)
VH: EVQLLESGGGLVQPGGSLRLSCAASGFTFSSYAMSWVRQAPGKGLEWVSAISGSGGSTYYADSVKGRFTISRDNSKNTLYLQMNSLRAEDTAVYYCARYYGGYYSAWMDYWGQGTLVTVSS
VL: DIQMTQSPSSLSASVGDRVTITCRASQSISSYLNWYQQKPGKAPKLLIYAASSLQSGVPSRFSGSGSGTDFTLTISSLQPEDFATYYCQQTYGYLHTFGQGTKLEIK

- Kd [1]: 2.3 nM
- koff [1]: 0.00028 s⁻¹
- kon [1]: 130000 M⁻¹ s⁻¹
- EC50 [2]: 1.8 nM
- normalized % positive cells [4]: 0.94
- normalized % positive cells [5]: 0.25
- normalized % positive cells [6]: 0.74
- EC50 [7]: 0.51 nM
B2: 1206/1207 (antibody, V domains shown)
VH: EVQLLESGGGLVQPGGSLRLSCAASGFTFSGSSMSWVRQAPGKGLEWVSSIYYSGSGTYYADSVKGRFTISRDNSKNTLYLQMNSLRAEDTAVYYCARYGRNVHPYNLDYWGQGTLVTVSS
VL: B1 VL with T91G, G93Y, H96P
